Columns and labels:
[1] = molecular target: acetylated, soluble type I collagen from rat tail, natively folded (triple-helical) (rat) (UniProt P02454)
[2] = molecular target: gelatin derived from type I collagen from rat tail (acetylated collagen denatured at 95 °C for 10 min) (rat) (UniProt P02454)

Substance	KM of degradation of natively folded type I collagen (Michaelis-Menten kinetics, discontinuous cleavage assay with fluorescamine detection of neo-N-termini, 25 °C) [1] [µM]	KM of gelatin degradation (Michaelis-Menten kinetics, discontinuous cleavage assay with fluorescamine detection of neo-N-termini, 25 °C) [2] [µM]
ColG collagenase unit from Clostridium histolyticum (from UniProt Q9X721 119-789) (enzyme)	3.4	1.35
ColQ1 collagenase unit (Y94-G765) from Bacillus cereus strain Q1 (from UniProt B9J3S4 94-765) (enzyme)	1.72	1.36

Reference: publication PMC7893005
